Patent publication US20030008334A1 (published 2003)
One block for each molecule: values may come before it.

Legend:
[1] = biological target: MBP-afadin-PDZ (MBP-fusion protein of the PDZ domain of afadin) (UniProt O35889); test: affinity chromatography on MBP-afadin-PDZ amylose beads, eluate on SDS-PAGE
[2] = biological target: the molecule itself; test: immunofluorescence microscopy of co-cultured nectin-1α-L and nectin-2α-L cells
Protocol: Chemical cross-linking was done according to the method described in references (Blood 92: 4602-4611, 1998; J. Biol. Chem., 275: 613-618, 2000). Immunoprecipitation was performed according to the method described in references (J. Cell Biol., 145: 539-549, 1999; J. Biol. Chem., 275: 613-618, 2000). Immunofluorescence microscopy of cultured cells was done according to the method described in references (J. Cell Biol., 139: 517-528, J. Cell Biol., 145: 539-549, 1999; J. Biol. Chem., 275: 613-618, 2000). Protein concentrations were determined with bovine serum albumin as a control, according to the method described in a reference (Anal. Biochem., 72: 248-254, 1976). SDS-PAGE was done as described (Nature, 227: 680-685, 1970).
When nectin-1α-L cells were co-cultured with nectin-2α-L cells, nectin-1α and nectin-2α were localized in the cell-cell contact sites of the respective L cells (FIG. 5, A1-A3). However, neither nectin-1α or nectin-2α was detected in the contact sites of the two types of the L cells. In contrast, when nectin-3α-L cells were co-cultured with nectin-1α-L cells, nectin-3α and nectin-1α coexisted in the cell-cell contact site of the two types of the L cells (FIG. 5, B1-B3). The same result was obtained in co-culture of nectin-3α-L cells and nectin-2α-L cells (FIG. 5, C1-C3).

stoichiometry of binding (nectin-3α:afadin ratio) [1]: 1
Molecule: GST-nectin-3α-CP (GST-fusion protein of the cytoplasmic region of nectin-3α) (from UniProt Q9JLB9 433-549)

B1: Full-length human nectin-1α expressed on L cells (nectin-1α-L cells) (receptor, UniProt Q15223 31-517, looked up)
chain: QVVQVNDSMYGFIGTDVVLHCSFANPLPSVKITQVTWQKSTNGSKQNVAIYNPSMGVSVLAPYRERVEFLRPSFTDGTIRLSRLELEDEGVYICEFATFPTGNRESQLNLTVMAKPTNWIEGTQAVLRAKKGQDDKVLVATCTSANGKPPSVVSWETRLKGEAEYQEIRNPNGTVTVISRYRLVPSREAHQQSLACIVNYHMDRFKESLTLNVQYEPEVTIEGFDGNWYLQRMDVKLTCKADANPPATEYHWTTLNGSLPKGVEAQNRTLFFKGPINYSLAGTYICEATNPIGTRSGQVEVNITEFPYTPSPPEHGRRAGPVPTAIIGGVAGSILLVLIVVGGIVVALRRRRHTFKGDYSTKKHVYGNGYSKAGIPQHHPPMAQNLQYPDDSDDEKKAGPLGGSSYEEEEEEEEGGGGGERKVGGPHPKYDEDAKRPYFTVDEAEARQDGYGDRTLGYQYDPEQLDLAENMVSQNDGSFISKKEWYV
notes: whole, on cells
binding result [2]: binds
